According to US20130315946A1:

Molecular target: complement C3
Test: ELISA, peptide coated on plate, serum C3 detected with anti-C3 antibody; relative to A2-0 (SPE B C192S)

Row | Binder | binding ability relative to reference A2-0 [%]
1 | ALGTGGGAGGFNGYQSAVVGIKP [SPE B376~398 (as set forth in SEQ ID NO: 8)] | > 50
2 | GADGRNFYHVNWGWG [SPE B346~360 (as set forth in SEQ ID NO: 6)] | > 50
